We go through two molecules from patent publication US20240116985A1 (published 2024).

Starred links: 1 amine or outer side, 2 acyl side, 3 side chain; linkers in the order of their positions; H or OH if unused. Positions of bridges follow the written chain, without caps; N, C: chain ends. Non-standard residues stand in square brackets, D forms with d. Primed or numbered codes have the meaning given here. PyrS2″ = (S)-3-amino-1-((pent-4-en-1-yloxy)carbonyl)pyrrolidine-3-carboxylic acid (stapling residue), C=CCCCOC(=O)N1CC[C@@](N[*:1])(C(=O)[*:2])C1; B5(16) = 2-amino-2-(pent-4-en-1-yl)hept-6-enoic acid = 2,2-bis(4-pentenyl)glycine (stitching residue), C=CCCCC(CCCC=C)(N[*:1])C(=O)[*:2]; B5(4) = 2,2-bis(4-pentenyl)glycine = 2-amino-2-(pent-4-en-1-yl)hept-6-enoic acid (stitching residue), C=CCCCC(CCCC=C)(N[*:1])C(=O)[*:2]; Phe(2-Cl) = N[C@@H](Cc1ccccc1Cl)C(=O)O; Bta = N[C@@H](Cc1csc2ccccc12)C(=O)O; αAllylPro = C=CC[C@@]1(C(=O)O)CCCN1

Broadly, the EC50 is the concentration at which the effect is half-maximal. As a reminder, the IC50 is the concentration needed to halve the response being measured. Read a low IC50 as higher potency.

Experiment [1] addresses T1, full-length beta-Catenin (Uniprot ID P35222) (Homo sapiens (Human), UniProt P35222 2-781).
T1 construct: Used at 10 nM in the FP probe solution as 'full-length'; Also used here for the endogenous beta-catenin of the DLD1 TCF/LEF reporter cells (functional rows); also called bCat; B-Catenin
T1 sequence: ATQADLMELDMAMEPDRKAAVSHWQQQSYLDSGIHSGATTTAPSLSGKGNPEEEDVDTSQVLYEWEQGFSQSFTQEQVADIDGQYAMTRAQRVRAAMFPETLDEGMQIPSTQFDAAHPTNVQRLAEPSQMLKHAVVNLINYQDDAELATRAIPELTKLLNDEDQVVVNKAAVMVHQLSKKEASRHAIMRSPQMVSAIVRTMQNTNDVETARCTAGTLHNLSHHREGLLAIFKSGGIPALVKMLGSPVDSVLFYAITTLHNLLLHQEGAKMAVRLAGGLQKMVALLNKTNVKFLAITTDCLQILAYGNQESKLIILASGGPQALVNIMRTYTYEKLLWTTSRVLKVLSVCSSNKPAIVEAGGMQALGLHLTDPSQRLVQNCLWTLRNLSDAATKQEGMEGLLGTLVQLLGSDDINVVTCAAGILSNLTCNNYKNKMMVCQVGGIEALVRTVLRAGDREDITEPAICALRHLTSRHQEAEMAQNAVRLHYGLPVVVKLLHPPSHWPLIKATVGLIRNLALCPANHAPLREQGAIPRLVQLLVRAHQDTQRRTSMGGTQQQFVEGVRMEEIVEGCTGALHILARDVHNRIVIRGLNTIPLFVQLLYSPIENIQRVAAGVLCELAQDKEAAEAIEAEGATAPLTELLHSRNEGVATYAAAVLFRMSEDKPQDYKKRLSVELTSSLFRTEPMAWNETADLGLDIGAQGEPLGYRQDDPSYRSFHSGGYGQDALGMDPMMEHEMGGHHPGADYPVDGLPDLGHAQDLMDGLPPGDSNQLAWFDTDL
Description: fluorescence polarization competition; 10 nM full-length beta-catenin + 10 nM 5FAM-TCF4 10-53 as competitor probe. Here is the method:
The plate was incubated protected from light for 60 minutes at 20° C. prior to read. Reads were performed on a CLARIOstar plate reader (BMG Labtech) in duplicate, and data were fitted to a 1:1 binding model with hill slope using an in-house script. All provided concentrations are final concentrations.
A general note: Fluorescence polarisation rises when a labelled molecule tumbles more slowly, as on binding a larger partner.

Another experiment concerns the target T2, Bcat-Halo (UniProt P35222 1-781, HaloTag NanoBRET 618 Ligand bound to the Halo part).
T2 construct: Expressed in transfected HEK293 cells (NanoBRET acceptor construct); also called beta-catenin HaloTag fusion; not shown: HaloTag
T2 sequence (looked up): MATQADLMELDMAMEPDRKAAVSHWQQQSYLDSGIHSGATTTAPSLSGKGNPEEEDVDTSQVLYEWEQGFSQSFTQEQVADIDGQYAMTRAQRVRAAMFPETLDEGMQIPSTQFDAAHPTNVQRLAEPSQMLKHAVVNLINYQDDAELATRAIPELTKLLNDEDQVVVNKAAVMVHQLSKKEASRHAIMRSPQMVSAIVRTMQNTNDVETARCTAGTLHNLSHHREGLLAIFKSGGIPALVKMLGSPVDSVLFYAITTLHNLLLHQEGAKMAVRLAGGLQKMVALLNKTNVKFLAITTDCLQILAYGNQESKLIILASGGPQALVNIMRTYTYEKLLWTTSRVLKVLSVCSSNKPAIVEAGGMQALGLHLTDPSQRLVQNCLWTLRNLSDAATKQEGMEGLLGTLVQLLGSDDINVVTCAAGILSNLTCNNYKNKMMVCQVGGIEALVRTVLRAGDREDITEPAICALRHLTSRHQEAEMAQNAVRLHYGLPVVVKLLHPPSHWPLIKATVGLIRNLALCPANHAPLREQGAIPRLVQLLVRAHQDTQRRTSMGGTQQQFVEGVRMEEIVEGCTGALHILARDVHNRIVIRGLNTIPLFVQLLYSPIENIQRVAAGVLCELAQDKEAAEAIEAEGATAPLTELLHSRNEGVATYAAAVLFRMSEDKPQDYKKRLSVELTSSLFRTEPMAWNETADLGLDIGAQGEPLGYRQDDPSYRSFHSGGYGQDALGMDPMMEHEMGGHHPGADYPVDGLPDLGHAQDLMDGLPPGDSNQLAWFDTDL
The experiment can be described thus: NanoBRET Abs IC50, HEK293 cells transfected with Bcat-Halo and TCF4-Luc (competitor: TCF4-Luc); cellular assay. In general terms: Bioluminescence resonance energy transfer reports proximity on the nanometre scale.

In the case of Ac-[αAllylPro]DF[B5(16)]DDAAFS[PyrS2″][Phe(2-Cl)][Bta]Q-NH2 (staple 1-4, 4-11, Stapled (stitched) peptide composition) [I-1045], the EC50 in experiment [1] was 0.005 µM. Further, the IC50 with Bcat-Halo was 23.9 µM.

Take Ac-[αAllylPro]DF[B5(4)]DDAAFN[PyrS2″][Phe(2-Cl)][Bta]S-NH2 (staple 1-4, 4-11, Stapled (stitched) peptide composition) [I-1047]: in experiment [1], the EC50 was 0.005 µM. The same molecule returned an IC50 with Bcat-Halo of 28.4 µM.
